According to paper PMC6079011, “Salvage of the 5-deoxyribose byproduct of radical SAM enzymes” (Nature Communications, 2018):

What was measured:
[1] = molecular target: DrdA (aldolase) (Bacillus thuringiensis, UniProt P0DTQ0); conditions: tag-free protein, Mn2+ site, co-crystallised with 20 equivalents DHAP, pH 7.5
[2] = molecular target: T1, DEP1 (AtDEP1) (Arabidopsis thaliana, UniProt Q9FN41); assay: coupled glycerol-3-phosphate dehydrogenase NADH assay; assay type: biochemical; conditions: aldol cleavage, 500 µM dRu1P, pH 8.2, 21 °C
T1 construct: gene At5g53850; C-terminal His6-tag, from cDNA clone, expressed in E. coli BL21 CodonPlus (DE3)-RIPL; class II aldolase fused to HAD phosphatase domain
T1 sequence (Q9FN41 2-507): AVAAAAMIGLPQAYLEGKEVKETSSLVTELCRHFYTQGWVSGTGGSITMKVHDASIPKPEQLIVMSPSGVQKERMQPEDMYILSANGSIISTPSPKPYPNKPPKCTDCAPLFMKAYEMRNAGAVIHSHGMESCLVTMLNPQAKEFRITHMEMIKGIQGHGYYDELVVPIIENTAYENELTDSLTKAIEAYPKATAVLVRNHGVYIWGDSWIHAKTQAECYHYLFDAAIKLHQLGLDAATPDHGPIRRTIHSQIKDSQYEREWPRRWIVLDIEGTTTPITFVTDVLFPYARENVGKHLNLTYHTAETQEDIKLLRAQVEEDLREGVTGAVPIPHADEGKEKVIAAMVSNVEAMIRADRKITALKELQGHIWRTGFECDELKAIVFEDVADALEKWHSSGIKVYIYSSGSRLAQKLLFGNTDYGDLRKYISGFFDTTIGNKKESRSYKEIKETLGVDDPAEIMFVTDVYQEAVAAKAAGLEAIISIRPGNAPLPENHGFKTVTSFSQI

[3] = molecular target: B. thuringiensis 5-deoxyribose disposal isomerase DrdI, His6-tagged (Bacillus thuringiensis HD73-20 (BGSC 4D22)); assay: SEC; native molecular mass estimated on a Superdex 200 column, eluted with 50 mM HEPES-KOH, 50 mM KCl, pH 7.5, 10% glycerol
[4] = molecular target: the molecule itself; assay: crystal structure; X-ray, 1.55 Å, space group P42(1)2, one monomer per asymmetric unit; crystals from 200 mM NaCl, 28% PEG-3350, 100 mM HEPES-KOH pH 7.5, 20 °C
[5] = substrate: C[C@H]1O[C@H](OP(=O)(O)O)[C@H](O)[C@@H]1O; assay: coupled DrdA/glycerol-3-phosphate dehydrogenase NADH assay; assay type: biochemical, Bacillus thuringiensis; conditions: pH 8.0, 21 °C
Source text: coupled DrdA/glycerol-3-phosphate dehydrogenase NADH assay on DrdI (isomerase)

[6] = substrate: Nc1ncnc2c1ncn2[C@@H]1O[C@H](COP(=O)(O)OP(=O)(O)OP(=O)(O)O)[C@@H](O)[C@H]1O; assay: coupled pyruvate kinase/lactate dehydrogenase NADH assay; assay type: biochemical, Bacillus thuringiensis; conditions: co-substrate 5-deoxyribose (500 µM), Mg2+, pH 8.0, 21 °C
Source text: coupled pyruvate kinase/lactate dehydrogenase NADH assay on DrdK (kinase)

[7] = molecular target: the molecule itself; assay: SEC; native molecular mass estimated on a Superdex 200 column, eluted with 50 mM HEPES-KOH, 50 mM KCl, pH 7.5, 10% glycerol

Molecule: O=C(CO)COP(=O)(O)O [dihydroxyacetone phosphate]
- X-ray crystal structure of complex [1]: we solved the co-complex structure of DHAP bound to DrdA

Molecule: C[C@@H](O)[C@@H](O)C(=O)COP(=O)(O)O [5-deoxyribulose 1-phosphate]
- coupled glycerol-3-phosphate dehydrogenase NADH assay [2]: Recombinant DEP1 showed aldolase activity towards 5-deoxyribulose-1-phosphate

Molecule: B. thuringiensis 5-deoxyribose disposal isomerase DrdI, His6-tagged (enzyme)
- stoichiometry N [3]: 2

B1: B. thuringiensis aldolase DrdA, tag-free variant (enzyme)
chain: MLLQKEREEIVAYGKKMISSGLTKGTGGNISIFNREQGLVAISPSGLEYYETKPEDVVILNLDGEVIEGERKPSSELDMHLIYYRKREDINALVHTHSPYAKTIASLGWELPAVSYLIAFAGPNVRCAPYETFGTKQLADAAFEGMIDRRAVLLANHGLIAGANNIKMAFTVAEEIEFCAQIYYQTKSIGEPKLLPEDEMENLAKKFEGYGQQ
notes: also called tag-free version; His-tag-free protein; source: E. coli BL21(DE3), purified (ammonium sulfate precipitation, MonoQ anion exchange, Superdex 200 SEC)
- stoichiometry N [4]: 4

B2: DrdI (isomerase) (Bacillus thuringiensis serovar kurstaki str. HD73) (protein)
chain: MMEEQLIPIQWKDDALVLLDQTLLPNEIVYESFKTAESVWDAIQVMKVRGAPVIGVSAAYGVYLGVKEFAESTEEGFMDEVRKVCTYLATSRPTAVNLFWALERMESVAADNIHLSISQLKDRLLEEAKEIHREDEEINRQIGEHALTLFHDGMGVLTHCNAGALATTKYGTATAPMYLAKEKGWDLKIFSDETRPRLQGSTLTALELQRAGIDVTVITDNMAAMVMSQGKIDAVIVGCDRVAANGDIANKIGTLGVSILAKYYNIPFYVAAPTPTIDLKTPTGKEIPIEERDASEVINRFGQYSAPKESKVYNPAFDVTPHENVTAIITEKGIVKAPFTENLKKIFQ
notes: full length, N-terminal His6-tag with short linker, expressed in E. coli BL21 CodonPlus (DE3)-RIPL; dimer
- Km [5]: 22 ± 7 × 10^3 µM
- kcat [5]: 3.5 ± 0.7 s⁻¹
- kcat/Km [5]: 160 ± 60 M⁻¹ s⁻¹

B3: B. thuringiensis 5-deoxyribose disposal kinase DrdK, His6-tagged (enzyme, UniProt P0DTQ2 1-409, looked up)
chain: MSKFTKYFLMEASDVIAYVKEKLSKFEHAKGLKCKEIGDGNLNYVFRVWDKKENMSVIVKQAGDTARISDEFKLSTNRIRIESDVLQLENELAPGLVPKVYLFDSVMNCCVMEDLSNHTILRTALINHQIFPQLADDLTTFMVNTLLLTSDVVMNHKEKKELVKNYINPELCEITEDLVYSEPFTNHNKRNELFPLNEGWIREHIYSDKELRMEVAKRKFSFMTNAQALLHGDLHTGSVFVRDDSTKVIDPEFAFYGPMGYDVGNVMANLMFAWVNADATMPPGAEKDTYMDWLQTTMVEVIDLFKKKFLDAWDIHVTEIMAKEEGFNEVYLQSVLEDTAAVTGLELIRRIVGLAKVKDITCIENEEARARAEQICLKVAKSFILRANQYRTGRSFVETLKEQSMHYAE
notes: Cloned into pET28b (XbaI/XhoI amplicon into NheI/XhoI); No step that removes the tag is described; also called 5-deoxyribose kinase; source: E. coli BL21 CodonPlus (DE3)-RIPL, purified (Ni-NTA)
- Km [6]: 216 ± 63 µM
- kcat [6]: 17.1 ± 2.5 s⁻¹
- kcat/Km [6]: 79000 ± 26000 M⁻¹ s⁻¹
- stoichiometry N [7]: 2
